The target in the test is recombinant TMPRSS2 (UniProt O15393). Description: enzyme inhibition kinetics (progress curve method); TMPRSS2 mixed with increasing SB3 (0-10 uM), fluorescent substrate Z-Gly-Gly-Arg-AMC, TBS pH 7.6, 25 °C, 300 s; Camostat mesylate as reference inhibitor.

For “recombinant SerpinB3 protein, wild type (from UniProt P29508 1-390) (natural protein)”, the dissociation constant, fold against Camostat was 6 times lower.
